Source: US20130157953A1, “TREATMENT OF CARDIAC CONDITIONS” (Zealand Pharma A/S, priority 2010, published 2013)
Numbered stars: 1 amine (or outer) side, 2 acyl side, 3 side chain; on linkers, the order of the positions; unused ones are H or OH. Bridge positions count the residues as written; N and C are the ends. Square brackets hold non-standard residues; d marks the D form. Side chains are listed from the residue outwards. * marks the point of attachment. γGlu = O=C(O)[C@H](CCC(=O)[*:2])N[*:1]; Palmitoyl = CCCCCCCCCCCCCCCC(=O)*; Aib = CC(C)(N)C(=O)O

B1: Compound 12 (peptide)
peptide: H-HSQGTFTSDYSKYLDRARADDFVAWLKST-NH2
B2: Compound 252 (peptide)
peptide: H-HSQGTFTSDYSRYLDSRRAKDFVWLLNT-NH2
B3: Compound 259 (peptide)
peptide: H-HSQGTFTSDYSKYLDERRAQDFVWLMNT-NH2
modifications: lactam 12-16
SMILES: CSCC[C@H](NC(=O)[C@H](CC(C)C)NC(=O)[C@H](Cc1c[nH]c2ccccc12)NC(=O)[C@@H](NC(=O)[C@H](Cc1ccccc1)NC(=O)[C@H](CC(=O)O)NC(=O)[C@H](CCC(N)=O)NC(=O)[C@H](C)NC(=O)[C@H](CCCNC(=N)N)NC(=O)[C@H](CCCNC(=N)N)NC(=O)[C@@H]1CCC(=O)NCCCC[C@H](NC(=O)[C@H](CO)NC(=O)[C@H](Cc2ccc(O)cc2)NC(=O)[C@H](CC(=O)O)NC(=O)[C@H](CO)NC(=O)[C@@H](NC(=O)[C@H](Cc2ccccc2)NC(=O)[C@@H](NC(=O)CNC(=O)[C@H](CCC(N)=O)NC(=O)[C@H](CO)NC(=O)[C@@H](N)Cc2c[nH]cn2)[C@@H](C)O)[C@@H](C)O)C(=O)N[C@@H](Cc2ccc(O)cc2)C(=O)N[C@@H](CC(C)C)C(=O)N[C@@H](CC(=O)O)C(=O)N1)C(C)C)C(=O)N[C@@H](CC(N)=O)C(=O)N[C@H](C(N)=O)[C@@H](C)O
B4: Compound 258 (peptide)
peptide: H-HSQGTFTSDYSRYLDERRAQDFVWLMNT-NH2
B5: Compound 256 (peptide)
peptide: H-HSQGTFTSDYSKYLDKRRAEDFVWLMNT-NH2
B6: Compound 244 (peptide)
peptide: H-HSQGTFTSDYSKYLDSRHAQDFVWLMNT-NH2
B7: Compound 254 (peptide)
peptide: H-HSQGTFTSDYSRYLDSRRAQDFVWLLNK-NH2
B8: Compound 260 (peptide)
peptide: H-HSQGTFTSDYSKYLDSKAAQDFVWLMNT-NH2
B9: Compound 205 (peptide)
peptide: H-HSQGTFTSDYSKYLDSKAAHDFVEWLLK([γGlu-Palmitoyl])A-NH2
SMILES: CCCCCCCCCCCCCCCC(=O)N[C@@H](CCC(=O)NCCCC[C@H](NC(=O)[C@H](CC(C)C)NC(=O)[C@H](CC(C)C)NC(=O)[C@H](Cc1c[nH]c2ccccc12)NC(=O)[C@H](CCC(=O)O)NC(=O)[C@@H](NC(=O)[C@H](Cc1ccccc1)NC(=O)[C@H](CC(=O)O)NC(=O)[C@H](Cc1c[nH]cn1)NC(=O)[C@H](C)NC(=O)[C@H](C)NC(=O)[C@H](CCCCN)NC(=O)[C@H](CO)NC(=O)[C@H](CC(=O)O)NC(=O)[C@H](CC(C)C)NC(=O)[C@H](Cc1ccc(O)cc1)NC(=O)[C@H](CCCCN)NC(=O)[C@H](CO)NC(=O)[C@H](Cc1ccc(O)cc1)NC(=O)[C@H](CC(=O)O)NC(=O)[C@H](CO)NC(=O)[C@@H](NC(=O)[C@H](Cc1ccccc1)NC(=O)[C@@H](NC(=O)CNC(=O)[C@H](CCC(N)=O)NC(=O)[C@H](CO)NC(=O)[C@@H](N)Cc1c[nH]cn1)[C@@H](C)O)[C@@H](C)O)C(C)C)C(=O)N[C@@H](C)C(N)=O)C(=O)O
B10: Compound 255 (peptide)
peptide: H-HSQGTFTSDYSKYLDSALAQDFVWLLNT-NH2
B11: Compound 48 (peptide)
peptide: H-HSQGTFTSDYSKYLDSKAAHDFVEWLLRA-NH2
B12: Compound 248 (peptide)
peptide: H-HSQGTFTSDYSKYLDSRRAQDFVWLESA-NH2
B13: Compound 253 (peptide)
peptide: H-HSQGTFTSDYSRYLDSRRAQDFVWLLNT-NH2
B14: Compound 247 (peptide)
peptide: H-HSQGTFTSDYSKYLDSRYAQDFVWLMNT-NH2
B15: Compound 250 (peptide)
peptide: H-HSQGTFTSDYSKYLDSRRAQDFVWLKRA-NH2
B16: Compound 251 (peptide)
peptide: H-HSQGTFTSDYSKYLDSRRAQDFVWLERA-NH2
B17: Compound 246 (peptide)
peptide: H-HSQGTFTSDYSKYLDSRAAQDFVWLMNT-NH2
B18: Compound 204 (peptide)
peptide: H-HSQGTFTSDYSKYLDSKAAK([γGlu-Palmitoyl])DFVEWLLRA-NH2
SMILES: CCCCCCCCCCCCCCCC(=O)N[C@@H](CCC(=O)NCCCC[C@H](NC(=O)[C@H](C)NC(=O)[C@H](C)NC(=O)[C@H](CCCCN)NC(=O)[C@H](CO)NC(=O)[C@H](CC(=O)O)NC(=O)[C@H](CC(C)C)NC(=O)[C@H](Cc1ccc(O)cc1)NC(=O)[C@H](CCCCN)NC(=O)[C@H](CO)NC(=O)[C@H](Cc1ccc(O)cc1)NC(=O)[C@H](CC(=O)O)NC(=O)[C@H](CO)NC(=O)[C@@H](NC(=O)[C@H](Cc1ccccc1)NC(=O)[C@@H](NC(=O)CNC(=O)[C@H](CCC(N)=O)NC(=O)[C@H](CO)NC(=O)[C@@H](N)Cc1c[nH]cn1)[C@@H](C)O)[C@@H](C)O)C(=O)N[C@@H](CC(=O)O)C(=O)N[C@@H](Cc1ccccc1)C(=O)N[C@H](C(=O)N[C@@H](CCC(=O)O)C(=O)N[C@@H](Cc1c[nH]c2ccccc12)C(=O)N[C@@H](CC(C)C)C(=O)N[C@@H](CC(C)C)C(=O)N[C@@H](CCCNC(=N)N)C(=O)N[C@@H](C)C(N)=O)C(C)C)C(=O)O
B19: Compound 257 (peptide)
peptide: H-HSQGTFTSDYSKYLDKRRAEDFVWLMNT-NH2
modifications: lactam 16-20
SMILES: CSCC[C@H](NC(=O)[C@H](CC(C)C)NC(=O)[C@H](Cc1c[nH]c2ccccc12)NC(=O)[C@@H](NC(=O)[C@H](Cc1ccccc1)NC(=O)[C@H](CC(=O)O)NC(=O)[C@@H]1CCC(=O)NCCCC[C@H](NC(=O)[C@H](CC(=O)O)NC(=O)[C@H](CC(C)C)NC(=O)[C@H](Cc2ccc(O)cc2)NC(=O)[C@H](CCCCN)NC(=O)[C@H](CO)NC(=O)[C@H](Cc2ccc(O)cc2)NC(=O)[C@H](CC(=O)O)NC(=O)[C@H](CO)NC(=O)[C@@H](NC(=O)[C@H](Cc2ccccc2)NC(=O)[C@@H](NC(=O)CNC(=O)[C@H](CCC(N)=O)NC(=O)[C@H](CO)NC(=O)[C@@H](N)Cc2c[nH]cn2)[C@@H](C)O)[C@@H](C)O)C(=O)N[C@@H](CCCNC(=N)N)C(=O)N[C@@H](CCCNC(=N)N)C(=O)N[C@@H](C)C(=O)N1)C(C)C)C(=O)N[C@@H](CC(N)=O)C(=O)N[C@H](C(N)=O)[C@@H](C)O
B20: Compound 215 (peptide)
peptide: H-H[Aib]QGTFTSDYSKYLDSK([3‑aminopropanoyl-Palmitoyl])AAHDFVEWLLSA-NH2
B21: Compound 245 (peptide)
peptide: H-HSQGTFTSDYSKYLDSRSAQDFVWLMNT-NH2
B22: Compound 243 (peptide)
peptide: H-HSQGTFTSDYSKYLDSERAQDFVWLMNT-NH2
B23: Compound 263 (peptide)
peptide: H-H[Aib]QGTFTSDYSKYLDEK([γGlu-Palmitoyl])RAKDFIEWLLSA-NH2
SMILES: CCCCCCCCCCCCCCCC(=O)N[C@@H](CCC(=O)NCCCC[C@H](NC(=O)[C@H](CCC(=O)O)NC(=O)[C@H](CC(=O)O)NC(=O)[C@H](CC(C)C)NC(=O)[C@H](Cc1ccc(O)cc1)NC(=O)[C@H](CCCCN)NC(=O)[C@H](CO)NC(=O)[C@H](Cc1ccc(O)cc1)NC(=O)[C@H](CC(=O)O)NC(=O)[C@H](CO)NC(=O)[C@@H](NC(=O)[C@H](Cc1ccccc1)NC(=O)[C@@H](NC(=O)CNC(=O)[C@H](CCC(N)=O)NC(=O)C(C)(C)NC(=O)[C@@H](N)Cc1c[nH]cn1)[C@@H](C)O)[C@@H](C)O)C(=O)N[C@@H](CCCNC(=N)N)C(=O)N[C@@H](C)C(=O)N[C@@H](CCCCN)C(=O)N[C@@H](CC(=O)O)C(=O)N[C@@H](Cc1ccccc1)C(=O)N[C@H](C(=O)N[C@@H](CCC(=O)O)C(=O)N[C@@H](Cc1c[nH]c2ccccc12)C(=O)N[C@@H](CC(C)C)C(=O)N[C@@H](CC(C)C)C(=O)N[C@@H](CO)C(=O)N[C@@H](C)C(N)=O)[C@@H](C)CC)C(=O)O

What follows are binders tested against human glucagon-like peptide 1 receptor (GLP-1R) (human, UniProt P43220 24-463) (assay: cell-based or functional assay).

Row | Binder | EC50 (nM) GLP-1R; cAMP content, HEK293 cells expressing human GLP-1R [nM]
1 | B1 | 0.23
2 | B2 | 0.5
3 | B3 | 0.04
4 | B4 | 0.07
5 | B5 | 0.2
6 | B6 | 0.5
7 | B7 | 0.2
8 | B8 | 0.02
9 | B9 | 0.09
10 | B10 | 0.24
11 | B11 | 0.06
12 | B12 | 0.5
13 | B13 | 0.2
14 | B14 | 0.3
15 | B15 | 0.3
16 | B16 | 0.2
17 | B17 | 0.3

The binders below were run against human glucagon receptor (Glucagon-R) (human, UniProt P47871 26-477) (assay: cell-based or functional assay).
human glucagon receptor (Glucagon-R), sequence (P47871 26-477): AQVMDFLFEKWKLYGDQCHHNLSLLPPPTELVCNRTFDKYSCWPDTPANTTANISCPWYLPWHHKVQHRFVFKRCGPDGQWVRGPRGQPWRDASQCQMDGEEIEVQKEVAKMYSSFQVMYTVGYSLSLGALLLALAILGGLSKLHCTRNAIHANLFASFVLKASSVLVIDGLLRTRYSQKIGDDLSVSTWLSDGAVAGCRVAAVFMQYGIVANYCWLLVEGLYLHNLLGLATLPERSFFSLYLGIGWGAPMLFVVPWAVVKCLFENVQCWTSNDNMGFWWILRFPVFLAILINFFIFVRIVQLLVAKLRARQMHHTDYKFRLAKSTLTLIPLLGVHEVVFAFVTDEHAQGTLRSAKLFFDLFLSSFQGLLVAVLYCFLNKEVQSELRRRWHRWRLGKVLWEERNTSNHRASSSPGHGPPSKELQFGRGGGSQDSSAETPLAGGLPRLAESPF

Row | Binder | EC50 (nM) GuR; cAMP content, HEK293 cells expressing the human glucagon receptor [nM]
18 | B1 | 0.5
19 | B18 | 0.04
20 | B2 | 0.3
21 | B3 | 0.03
22 | B4 | 0.06
23 | B19 | 0.09
24 | B20 | 1.87
25 | B5 | 0.07
26 | B6 | 0.05
27 | B7 | 0.2
28 | B21 | 0.05
29 | B8 | 0.07
30 | B22 | 0.06
31 | B11 | 0.06
32 | B23 | 0.16
33 | B17 | 0.05
